# Read-outs that look alike come from different tables or passages of the source.
# T1: human CD39 (Accession No. NM_001776.6) expressed on cells (human, UniProt P49961 1-510)
# T1 construct: whole, on cells; On Jurkat, 293T or SK-MEL28 cells; also called Jurkat/CD39; 293T/CD39
# T1 sequence (looked up): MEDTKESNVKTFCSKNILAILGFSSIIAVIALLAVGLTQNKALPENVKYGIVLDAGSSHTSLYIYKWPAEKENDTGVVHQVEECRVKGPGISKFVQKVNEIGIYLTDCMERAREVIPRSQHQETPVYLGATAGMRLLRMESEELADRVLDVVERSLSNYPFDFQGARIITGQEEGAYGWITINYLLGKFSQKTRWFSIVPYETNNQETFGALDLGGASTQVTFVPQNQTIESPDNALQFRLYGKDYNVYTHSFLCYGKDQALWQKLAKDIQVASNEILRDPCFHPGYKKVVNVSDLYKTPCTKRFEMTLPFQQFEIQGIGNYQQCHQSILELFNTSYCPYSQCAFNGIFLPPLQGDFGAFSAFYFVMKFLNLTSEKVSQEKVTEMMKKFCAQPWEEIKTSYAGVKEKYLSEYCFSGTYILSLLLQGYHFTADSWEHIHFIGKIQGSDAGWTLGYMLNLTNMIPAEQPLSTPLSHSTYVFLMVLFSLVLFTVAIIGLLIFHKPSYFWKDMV
# T2: recombinant human CD39 (in-house product, 38 to 478 aa of Accession No. NM_001776.6) (human, UniProt P49961 38-478)
# T2 construct: also called rhCD39; human CD39-ECD; not shown: Myc and His tags at the C-terminus are named only for the PE-lab
# T2 sequence (looked up): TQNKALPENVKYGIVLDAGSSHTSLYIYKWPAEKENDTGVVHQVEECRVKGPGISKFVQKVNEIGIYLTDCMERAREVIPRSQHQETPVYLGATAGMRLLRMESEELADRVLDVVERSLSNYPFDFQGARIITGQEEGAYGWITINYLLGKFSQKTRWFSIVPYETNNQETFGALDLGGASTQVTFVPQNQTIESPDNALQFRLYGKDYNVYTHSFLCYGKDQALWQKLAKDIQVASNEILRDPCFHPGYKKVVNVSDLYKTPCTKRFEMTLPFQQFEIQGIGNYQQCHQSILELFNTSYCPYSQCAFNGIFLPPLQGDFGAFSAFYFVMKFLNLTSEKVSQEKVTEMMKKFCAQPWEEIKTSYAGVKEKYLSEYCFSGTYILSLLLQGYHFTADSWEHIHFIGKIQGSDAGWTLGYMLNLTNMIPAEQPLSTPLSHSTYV
# Key:
# [1] = target: T1, human CD39 (Accession No. NM_001776.6) …; experiment: flow cytometry, Jurkat/TIM-3 + CD39 cells, KD from MFI
# [2] = target: T2, recombinant human CD39 (in-house …); experiment: SPR Biacore8K, antibody captured on anti-human IgG, antigen as analyte
# [3] = target: T1, human CD39 (Accession No. NM_001776.6) …; experiment: flow cytometry, Jurkat/CD39 cells, KD from MFI
# [4] = target: T1, human CD39 (Accession No. NM_001776.6) …; experiment: flow cytometry, 293T/TIM-3 + CD39 cells, KD from MFI
# [5] = target: T1, human CD39 (Accession No. NM_001776.6) …; experiment: flow cytometry, 293T/CD39 cells, KD from MFI
# [6] = target: T3, biotinylated human TIM-3-Fc antigen (in-house product, SEQ ID No: 118) (human, biotinylated); experiment: competition ELISA: human Galectin-9 coated, biotinylated human TIM-3-Fc pre-mixed with the antibody dilution series, Streptavidin-HRP, A450; blocked ligand: human Galectin-9
# [7] = target: T3, biotinylated human TIM-3-Fc antigen …; experiment: flow cytometry, inhibition of biotinylated TIM-3-Fc binding to phosphatidylserine on apoptotic Jurkat cells
# [8] = target: T4, human TIM-3 (Accession No. JX049979.1) stably expressed on cells (human, UniProt Q8TDQ0 22-301); experiment: flow cytometry, Jurkat/TIM-3 cells, KD from MFI
# T4 construct: whole, on cells; On Jurkat or 293T cells; also called Jurkat/TIM-3; 293T/TIM-3
# [9] = target: T3, biotinylated human TIM-3-Fc antigen …; experiment: flow cytometry, inhibition of biotinylated TIM-3-Fc binding to phosphatidylserine on apoptotic Jurkat cells; remark: listed apart in the source
# [10] = target: T2, recombinant human CD39 (in-house …); experiment: SPR Biacore8K, antibody captured on anti-human IgG, antigen as analyte; remark: listed apart in the source
# [11] = target: T1, human CD39 (Accession No. NM_001776.6) …; experiment: flow cytometry, 293T/CD39 cells, KD from MFI; remark: listed apart in the source
Binder,Kd [1] [nM],Kd [2] [nM],koff [2] [s⁻¹],kon [2] [M⁻¹ s⁻¹],Kd [3] [nM],Kd [4] [nM],Kd [5] [nM],IC50 (read off the curve) [6] [nM],IC50 [7] [nM],Kd [8] [nM],IC50 [9] [nM],Kd [10] [nM],Kd [11] [nM]
"mAnE67_sc (antibody, scFv-Fc homodimer, anti-CD39 (mouse variable regions); also called scFv-Fc homodimeric antibody of anti-CD39_scFv antibody mAnE67; not shown: linker and Fc-LALA (human IgG1 Fc with L234A and L235A)) scFv: EVQLVESGGGLVKPGGSRKLSCAASGFTFSDYGMHWVRQAPEKGLEWVAYISSGSSIIYYADTVKGRFTISRDNAKNTLFLQMTGLRSEDTAMYYCARKDYPYAMDYWGQGTSLAVSSGGGGSGGGGSGGGGSGGGGSSIVMTQTPKFMSTSVGDRVSVTCKASQNVGTNVAWYQQKPGQSPKALIYWASNRFTGVPDRFTGSGSGTDFTLTISNVQSEDLADYFCQQYSSSPYTFGSGTKLEIK",0.343,4.75,0.00187,393000,0.334,5.5,2.19,,,,,,
6-3hIG_Hu003_Ct (bispecific antibody) chain 1: QVQLVQSGAELVKPGASVKLSCKASGFSIKDTYVHWVKQAPGKGLEWIGKIDPANVNTKFDPKFQGRVTITADTSTNTAYLQLSSLRSEDTAVYYCALYGYDDDAYYFDYWGQGTLVTVSSGGGGSGGGGSGGGGSGGGGSEIVLTQSPASLSVSPGERATISCRASESVDNYGISFMNWFQQKPGQAPKLLIYAASNQGSGVPARFSGSGSGTDFTLTISSLEPEDFAVYYCQQSKEVPYTFGQGTKLEIK chain 2: QVQLQESGGGLVKPGGSLKLSCAASGFTFSSYYMSWVRQTPDKRLEWVATISNSGGSTYYPDSVKDRFTISRDNAKNTLYLQMSSLKSEDTAMYYCARDPYYTNYVPMDYWGQGTMVTVSSGGGGSGGGGSGGGGSGGGGSDIVMTQSPSFLSASVGDRVTITCKASQYVDTYVAWYQQRPGKAPKPLIYSASTRHTGVPSRFSGSGSGTEFTLTISSLQPEDFATYFCAQYSSSPLTFGGGTKLELK,,0.355,,,237,,,~2,16.1,1.92,,,
"mAnE67_Hu003_Fsc (bispecific antibody, not shown: a dimerising Fc or GST, Fab-scFv-Fc heterodimer: anti-CD39 mAnE67 arm (Knob)) VH: EVQLVESGGGLVKPGGSRKLSCAASGFTFSDYGMHWVRQAPEKGLEWVAYISSGSSIIYYADTVKGRFTISRDNAKNTLFLQMTGLRSEDTAMYYCARKDYPYAMDYWGQGTSLAVSS VL: SIVMTQTPKFMSTSVGDRVSVTCKASQNVGTNVAWYQQKPGQSPKALIYWASNRFTGVPDRFTGSGSGTDFTLTISNVQSEDLADYFCQQYSSSPYTFGSGTKLEIK scFv: QVQLQESGGGLVKPGGSLKLSCAASGFTFSSYYMSWVRQTPDKRLEWVATISNSGGSTYYPDSVKDRFTISRDNAKNTLYLQMSSLKSEDTAMYYCARDPYYTNYVPMDYWGQGTMVTVSSGGGGSGGGGSGGGGSGGGGSDIVMTQSPSFLSASVGDRVTITCKASQYVDTYVAWYQQRPGKAPKPLIYSASTRHTGVPSRFSGSGSGTEFTLTISSLQPEDFATYFCAQYSSSPLTFGGGTKLELK",,,,,,,,,,,19.8,2.7,3.94
"T86_Hu003_Fsc (bispecific antibody, not shown: a dimerising Fc or GST, Fab-scFv-Fc heterodimer: anti-CD39 Fab T86 (Knob)) VH: QIQLVQSGPELKKPGETVKISCEASGYTFINYGMNWVKQAPGKGLKWMGWINTYTGEPTYADDFKGRFAFSLETSANTAYLQINNLKNEDTATYFCARKGYYGYPNYYAMDYWGQGTSVTVSS VL: DIVMTQSQKFMSTSVGDRVSITCKASQNVGTAVAWYQQKPGQSPKLLIYSASNRYTGVPDRFTGSGSGTDFTLTISNMQSEDLADYFCQQYSSYPITFGTGTKLEIK scFv: QVQLQESGGGLVKPGGSLKLSCAASGFTFSSYYMSWVRQTPDKRLEWVATISNSGGSTYYPDSVKDRFTISRDNAKNTLYLQMSSLKSEDTAMYYCARDPYYTNYVPMDYWGQGTMVTVSSGGGGSGGGGSGGGGSGGGGSDIVMTQSPSFLSASVGDRVTITCKASQYVDTYVAWYQQRPGKAPKPLIYSASTRHTGVPSRFSGSGSGTEFTLTISSLQPEDFATYFCAQYSSSPLTFGGGTKLELK",,,,,,,,,,,23.9,2.4,9.19
"6-3hIG_sc (antibody, scFv-Fc homodimer, anti-CD39; also called scFv-Fc homodimeric antibody of anti-CD39_scFv antibody (humanized) 6-3hIG; not shown: GGGG linker and Fc-LALA (human IgG1 Fc with L234A and L235A)) scFv: QVQLVQSGAELVKPGASVKLSCKASGFSIKDTYVHWVKQAPGKGLEWIGKIDPANVNTKFDPKFQGRVTITADTSTNTAYLQLSSLRSEDTAVYYCALYGYDDDAYYFDYWGQGTLVTVSSGGGGSGGGGSGGGGSGGGGSEIVLTQSPASLSVSPGERATISCRASESVDNYGISFMNWFQQKPGQAPKLLIYAASNQGSGVPARFSGSGSGTDFTLTISSLEPEDFAVYYCQQSKEVPYTFGQGTKLEIK",33.6,0.465,0.000187,402000,42.1,26.6,18.6,,,,,,
"Tre291_Hu003_Fsc (bispecific antibody, not shown: a dimerising Fc or GST, Fab-scFv-Fc heterodimer: anti-CD39 Fab Tre291 (Knob)) VH: QVQLKQSGPGLVQPSQSLSITCTVSGFSLTSYGVHWVRQSPGKGLEWLGVIWRRGSTDYNAAFMSRLSITKDTSKSQVFFKMNSLQTDDTAIYYCAGVRGDAMDYWGQGTSVTVSS VL: DIVMTQSHKSMSTSVGDRVSVTCKASQNVGTNVAWYQQKPGQSPKALIYSASYRYSGVPDRFTGSGSGTDFTLTISNVQSEDLAEYFCQQYNSYPLTFGGGTKLEIK scFv: QVQLQESGGGLVKPGGSLKLSCAASGFTFSSYYMSWVRQTPDKRLEWVATISNSGGSTYYPDSVKDRFTISRDNAKNTLYLQMSSLKSEDTAMYYCARDPYYTNYVPMDYWGQGTMVTVSSGGGGSGGGGSGGGGSGGGGSDIVMTQSPSFLSASVGDRVTITCKASQYVDTYVAWYQQRPGKAPKPLIYSASTRHTGVPSRFSGSGSGTEFTLTISSLQPEDFATYFCAQYSSSPLTFGGGTKLELK",,,,,,,,,,,22.4,1.36,25.4
"T86_sc (antibody, scFv-Fc homodimer, anti-CD39 (mouse variable regions); also called scFv-Fc homodimeric antibody of anti-CD39_scFv antibody T86; not shown: linker and Fc-LALA (human IgG1 Fc with L234A and L235A)) scFv: QIQLVQSGPELKKPGETVKISCEASGYTFINYGMNWVKQAPGKGLKWMGWINTYTGEPTYADDFKGRFAFSLETSANTAYLQINNLKNEDTATYFCARKGYYGYPNYYAMDYWGQGTSVTVSSGGGGSGGGGSGGGGSGGGGSDIVMTQSQKFMSTSVGDRVSITCKASQNVGTAVAWYQQKPGQSPKLLIYSASNRYTGVPDRFTGSGSGTDFTLTISNMQSEDLADYFCQQYSSYPITFGTGTKLEIK",2.25,4.28,0.000823,192000,2.18,16.9,3.56,,,,,,
"I67_sc (antibody, scFv-Fc homodimer, anti-CD39 (mouse variable regions); also called scFv-Fc homodimeric antibody of anti-CD39_scFv antibody I67; not shown: linker and Fc-LALA (human IgG1 Fc with L234A and L235A)) scFv: DVQLQESGPSLVQPSQSLSINCTVSGFSLSSYGVHWVRQSPGKGLEWLGVIWRRGSTDYNAAFMSRLSITKDNSKSQVFFKMNRLQADDTATYYCAKGISTATSWFAYWGQGTLVTVSAGGGGSGGGGSGGGGSGGGGSDIVMTQSHKFMSTSVGDRVSVTCKASQNVGTNVAWYQQKPGQSPKALIYSASYRYSGVPDRFTGSGSGTDFTLTISNVQSEDLAEYFCQQYNSYPLTFGAGTKLELK",0.208,1.65,0.00294,1.78e+06,0.329,6.8,2.37,,,,,,
"Tre_291_sc (antibody, scFv-Fc homodimer, anti-CD39 (mouse variable regions); not shown: linker and Fc-LALA (human IgG1 Fc with L234A and L235A)) scFv: QVQLKQSGPGLVQPSQSLSITCTVSGFSLTSYGVHWVRQSPGKGLEWLGVIWRRGSTDYNAAFMSRLSITKDTSKSQVFFKMNSLQTDDTAIYYCAGVRGDAMDYWGQGTSVTVSSGGGGSGGGGSGGGGSGGGGSDIVMTQSHKSMSTSVGDRVSVTCKASQNVGTNVAWYQQKPGQSPKALIYSASYRYSGVPDRFTGSGSGTDFTLTISNVQSEDLAEYFCQQYNSYPLTFGGGTKLEIK",0.922,2.22,0.0031,1.4e+06,0.8,7.15,2.43,,,,,,

# Reference: patent US20260085127A1 (BRIGHTPATH BIOTHERAPEUTICS, published 2026)
